From patent US20240082327

System: Fct4 protein (Sendai virus F protein with truncated cytoplasmic domain), uncleaved

In the case of trypsin-like enzyme TrypLE, the “cleavage of Fct4 shown by Western blotting” value is reported as “incubation with a trypsin-like enzyme successfully cleaves Fct4”.
